Experimental data taken from patent US20200369747A1 (ICHNOS SCIENCES, published 2020).

Target: CD3ε on Jurkat-NFAT responder cells (UniProt P07766 23-207)
Test: cell-based or functional assay

Sequence of CD3ε on Jurkat-NFAT responder cells (P07766 23-207): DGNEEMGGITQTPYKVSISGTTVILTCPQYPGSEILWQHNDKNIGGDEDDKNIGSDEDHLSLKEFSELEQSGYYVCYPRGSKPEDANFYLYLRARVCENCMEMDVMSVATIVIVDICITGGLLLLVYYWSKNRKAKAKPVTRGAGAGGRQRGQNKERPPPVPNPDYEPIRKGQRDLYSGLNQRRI

- EC50 of NFAT-luciferase luminescence (Jurkat-NFAT responder cells co-incubated with SK-BR-3 target cells); sample: BEAT®3 High pH T2h: 0.0065 µg/ml
- EC50 of NFAT-luciferase luminescence (Jurkat-NFAT responder cells co-incubated with SK-BR-3 target cells); sample: BEAT®3 High pH T4h: 0.0074 µg/ml
B1: BEAT®3 (bispecific antibody, human IgG1, kappa, L234A L235A)
chain 1: EVQLVESGGGLVQPGGSLRLSCAASGFTFNTYAMNWVRQAPGKGLEWVARIRSKYNNYATYYADSVKSRFTISRDDSKNTLYLQMNSLRAEDTAVYYCVRHGNFGNSYVSYFAYWGQGTTVTVSSGGGGSGGGGSGGGGSEIVVTQSPATLSVSPGERATLSCRSSTGAVTESNYANWVQEKPGQAFRGLIGGANKRAPGVPARFSGSLSGDEATLTISSLQSEDFAVYYCALFYSNTWVFGQGTKLEIKGGGGTQVQLQESGPGLVKPSETLSLTCTVSGGSVSSGDYYWTWIRQSPGKGLEWIGHIYYSGNTNYNPSLKSRLTISIDTSKTQFSLKLSSVTAADTAIYYCVRDRVTGAFDIWGQGTMVTVSSASTKGPSVFPLAPSSKSTSGGTAALGCLVKDYFPEPVTVSWNSGALTSGVHTFPAVLQSSGLYSLSSVVTVPSSSLGTQTYICNVNHKPSNTKVDKKVEPKSCDKTHTCPPCPAPEAAGGPSVFLFPPKPKDTLMISRTPEVTCVVVDVSHEDPEVQFKWYVDGVEVHNAKTKPREEQYNSTFRVVSVLTVLHQDWLNGKEYKCKVSNKALPAPIEKTISKTKGQPREPAVYTLPPSREEMTKNQVKLVCLVTGFYPSDIAVEWESSGQPENNYYTTPPMLDSDGSFSLVSWLNVDKSRWQQGNIFSCSVMHEALHNRFTQKSLSLSPG
chain 2: not shown
chain 3: DKTHTCPPCPAPEAAGGPSVFLFPPKPKDTLMISRTPEVTCVVVDVSHEDPEVKFNWYVDGVEVHNAKTKPREEQYNSTYRVVSVLTVLHQDWLNGKEYKCKVSNKALPAPIEKTISKAKGQPREPEVATFPPSRDELTKNQVTLVCLVTGFYPSDIAVEWESNGQPENNYKTDPPLLESDGSFALSSRLRVDKSRWQQGNVFSCSVMHEALHNHYTQKSLSLSPG
